Drawing on article PMC3660254, “Control of Translation and miRNA-Dependent Repression by a Novel Poly(A) Binding Protein, hnRNP-Q”, this text covers Kd for one molecule.

The series deals with T1, hnRNP-Q2 (SYNCRIP, hnRNP-Q isoform 2) (mouse (cDNA from Krebs-2 cells), UniProt Q7TMK9-2 1-562).
T1 sequence: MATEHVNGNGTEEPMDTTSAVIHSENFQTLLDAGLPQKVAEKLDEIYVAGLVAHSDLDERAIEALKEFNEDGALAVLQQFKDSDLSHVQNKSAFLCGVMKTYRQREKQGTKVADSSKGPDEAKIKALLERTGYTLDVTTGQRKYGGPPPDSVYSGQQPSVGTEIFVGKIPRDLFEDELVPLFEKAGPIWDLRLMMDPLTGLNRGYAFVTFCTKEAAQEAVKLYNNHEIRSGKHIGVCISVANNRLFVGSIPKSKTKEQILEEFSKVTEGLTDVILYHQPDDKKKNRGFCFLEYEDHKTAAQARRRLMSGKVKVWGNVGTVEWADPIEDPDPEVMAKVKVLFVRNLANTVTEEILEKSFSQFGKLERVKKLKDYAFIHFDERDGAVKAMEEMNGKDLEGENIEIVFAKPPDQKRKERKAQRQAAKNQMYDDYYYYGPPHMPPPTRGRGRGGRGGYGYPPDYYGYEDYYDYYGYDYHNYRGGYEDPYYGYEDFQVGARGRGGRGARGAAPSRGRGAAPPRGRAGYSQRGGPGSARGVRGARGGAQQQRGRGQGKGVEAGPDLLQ
Description: EMSA; apparent Kd, 2 mM Mg2+; three experiments; EMSA: 20 mM HEPES-KOH pH 7.3, ~100 mM KCl, 2 mM MgCl2, 1 mM DTT, 0.05% NP40, 5% glycerol, 0.1 mg/ml acetylated BSA (plus 2 ul protein in buffer A), 30 C 30 min, gel at 4 C; UV crosslinking in nuclease-treated RRL. The conditions noted are these: protein: recombinant; tags: C-terminal His6 (pET28a); label: 5' 32P; single strand.

Consider AAAAAAAAAAAAAAAAAAAAAAAAAAAAAA (ssRNA) [oligo(A)30], for which the Kd is approximately 30 nM.
